Test results taken from patent US20140179896A1 (published 2014).
Positions count from the first letter of the chain named.

B1: 2′Del D1 PR4 (designed binder)
chain: EVVAATPTSLLISWRHPHFPTRYYRITYGETGGNSPVQEFTVPLQPPTATISGLKPGVDYTITGYAVTLEQNDRVLLTPISINYRT
notes: Del 1-8
B2: 3F8 PR3 (designed binder)
chain: B1 chain with L69V, E70A, D73G, R74H, V75E, L77K
notes: Del 1-8
B3: 3G2 PR3 (designed binder)
chain: B1 chain with L69F, E70G, Q71P, N72S, R74H
notes: Del 1-8
B4: 2′DelA5 PR4 (designed binder)
chain: B1 chain with L69W, E70N, D73G, R74Q, V75E, L77F
notes: Del 1-8
B5: 2′DelH9 PR4 (designed binder)
chain: B1 chain with L69V, E70G, Q71W, N72S, D73G, R74H, V75E, L77F, T78V
notes: Del 1-8
B6: 2′DelE4 PR4 (designed binder)
chain: B1 chain with L69V, E70H, Q71W, D73G, R74H, V75E, L77M
notes: Del 1-8
B7: 2′DelC7 PR4 (designed binder)
chain: B1 chain with L69W, E70D, D73G, R74H
notes: Del 1-8
B8: 2′Del F11 PR4 (designed binder)
chain: B1 chain with L69M, E70G, R74K, V75E, L77I
notes: Del 1-8
B9: 3′B10 PR4 (designed binder)
chain: B1 chain with E70A, N72T, D73G, V75E
notes: Del 1-8
B10: 2′Del F8 PR4 (designed binder)
chain: B1 chain with L69A, E70G, Q71P, N72G, D73A, R74H, V75E
notes: Del 1-8
B11: 3B4 PR3 (designed binder)
chain: B1 chain with L69V, E70G, D73E, R74H, V75E
notes: Del 1-8
B12: 2′Del H12 PR4 (designed binder)
chain: B1 chain with L69A, E70G, Q71G, D73G, R74H, V75E
notes: Del 1-8
B13: 3′C8 PR4 (designed binder)
chain: B1 chain with L69E, E70G, Q71L, R74H, V75E, L77M, T78I
notes: Del 1-8
B14: 3′B11 PR4 (designed binder)
chain: B1 chain with L69E, E70T, Q71W, R74H, V75E, L76I, L77R
notes: Del 1-8
B15: 2′Del E5 PR4 (designed binder)
chain: B1 chain with L69E, E70G, Q71L, R74H, V75E, L77I, T78I
notes: Del 1-8
B16: 3C9 PR3 (designed binder)
chain: B1 chain with E70V, Q71R, R74H, V75E
notes: Del 1-8
B17: 3′C6 PR4 (designed binder)
chain: B1 chain with L69M, E70G, Q71P, V75E
notes: Del 1-8
B18: 3C3 PR3 (designed binder)
chain: B1 chain with L69M, D73G, R74H, V75E, L77F
notes: Del 1-8
B19: 3′B4 PR4 (designed binder)
chain: B1 chain with L69V, E70A, Q71W, D73G, R74H, V75E, L77M
notes: Del 1-8
B20: 2′Del F1 PR4 (designed binder)
chain: B1 chain with L69R, E70D, N72Y, D73E, R74H, V75E
notes: Del 1-8
B21: 2′Del H5 PR4 (designed binder)
chain: B1 chain with E70G, Q71K, N72D, D73V, V75E
notes: Del 1-8
B22: 2′Del H6 PR4 (designed binder)
chain: B1 chain with L69T, E70G, Q71H, N72H, R74H, V75E, L77I, T78I
notes: Del 1-8
B23: 3B5 PR3 (designed binder)
chain: B1 chain with L69F, E70G, D73G, R74H, V75A
notes: Del 1-8
B24: 3D12 PR3 (designed binder)
chain: B1 chain with E70G, V75Q, T78V
notes: Del 1-8
B25: 2′DelH4 PR4 (designed binder)
chain: B1 chain with L69V, E70G, Q71P, D73E, V75M, L77M
notes: Del 1-8
B26: 2′DelB7 PR4 (designed binder)
chain: B1 chain with L69V, E70G, Q71Y, D73N, V75E
notes: Del 1-8
B27: 3′B1 PR4 (designed binder)
chain: B1 chain with L69E, E70A, Q71R, D73G, V75E
notes: Del 1-8
B28: 3′C5 PR4 (designed binder)
chain: B1 chain with L69D, E70A, Q71M, N72Y, D73G, V75E, L77M
notes: Del 1-8
B29: 3′D2 PR4 (designed binder)
chain: B1 chain with L69V, Q71S, D73G, R74H, V75A, L77F, T78V
notes: Del 1-8
B30: 3′C12 PR4 (designed binder)
chain: B1 chain with L69I, E70G, Q71P, D73N, R74H, V75E
notes: Del 1-8
B31: 2′Del F5 PR4 (designed binder)
chain: B1 chain with E70V, Q71H, V75E
notes: Del 1-8
B32: 2′Del D3 PR4 (designed binder)
chain: B1 chain with L69S, E70G, Q71L, L77F, T78I
notes: Del 1-8
B33: 3′B2 PR4 (designed binder)
chain: B1 chain with L69V, E70G, Q71R, V75E
notes: Del 1-8
B34: 3′A6 PR4 (designed binder)
chain: B1 chain with E70A, D73G, R74H, V75E
notes: Del 1-8
B35: 3A2 PR3 (designed binder)
chain: B1 chain with L69W, E70S, D73N, V75E, L77F
notes: Del 1-8
B36: 3′B8 PR4 (designed binder)
chain: B1 chain with E70G, Q71Y, N72H, R74H, V75A, L77F
notes: Del 1-8
B37: 2′Del G9 PR4 (designed binder)
chain: B1 chain with L69V, D73G, V75E, L77I, T78I
notes: Del 1-8
B38: 3F10 PR3 (designed binder)
chain: B1 chain with E70A, N72D, R74H, V75E
notes: Del 1-8
B39: 3′B12 PR4 (designed binder)
chain: B1 chain with L69V, E70A, Q71H, N72E, D73N, V75E
notes: Del 1-8
B40: 3′D3 PR4 (designed binder)
chain: B1 chain with L69P, E70G, Q71P, N72G, V75E, L77I
notes: Del 1-8
B41: 3′A8 PR4 (designed binder)
chain: B1 chain with L69V, E70A, Q71W, N72D, R74H, V75E
notes: Del 1-8
B42: 2′Del G11 PR4 (designed binder)
chain: B1 chain with L69G, E70G, N72M, D73N, L77M
notes: Del 1-8
B43: 2′Del D5 PR4 (designed binder)
chain: B1 chain with L69V, E70A, Q71W, R74H, V75M, L77M
notes: Del 1-8
B44: 2′DelC3 PR4 (designed binder)
chain: B1 chain with L69W, E70A, D73G, V75E
notes: Del 1-8
B45: 2′DelG5 PR4 (designed binder)
chain: B1 chain with L69V, E70G, D73N, R74H, V75E
notes: Del 1-8
B46: 3C7 PR3 (designed binder)
chain: B1 chain with L69R, E70G, Q71L, R74G, V75E
notes: Del 1-8
B47: 3′C3 PR4 (designed binder)
chain: B1 chain with L69M, E70A, D73G, R74H, V75A, L77F
notes: Del 1-8
B48: 2′Del E3 PR4 (designed binder)
chain: B1 chain with E70G, Q71P, N72Y, D73E, R74H, V75E
notes: Del 1-8
B49: 2′Del D10 PR4 (designed binder)
chain: B1 chain with E70A, Q71D, D73A, V75E
notes: Del 1-8
B50: 3′A9 PR4 (designed binder)
chain: B1 chain with E70A, Q71H, V75E
notes: Del 1-8
B51: 3′A7 PR4 (designed binder)
chain: B1 chain with E70S, Q71D, N72S, D73G, R74H, V75A, L77F
notes: Del 1-8
B52: 3A3 PR3 (designed binder)
chain: B1 chain with E70A, Q71Y, D73G, V75E, L76I, L77I
notes: Del 1-8
B53: 2′Del E6 PR4 (designed binder)
chain: B1 chain with L69M, E70G, Q71K, D73G, R74H, V75E
notes: Del 1-8
B54: 2′Del F7 PR4 (designed binder)
chain: B1 chain with E70G, Q71L, N72R, V75E, L77F, T78V
notes: Del 1-8

These binders were tested against T1, human vascular endothelial growth factor receptor-2 Fc chimera (KDR-Fc) (human, UniProt P35968 20-764) (assay: radioactive equilibrium binding, 1 nM KDR-Fc).
T1 construct: range 1-764; also called human VEGFR-2; VEGF-R2-Fc; not shown: human IgG1 Fc
Protocol: To prepare ³⁵S-labeled binding proteins for analysis, mRNA was prepared as described above for RNA-protein fusion production but the linker ligation step was omitted. The mRNA was expressed using rabbit reticulocyte lysate translation kit (Ambion) in the presence of ³⁵S-labeled Met at 30° C. for 1 hour. Expressed protein was purified on M2-agarose Flag beads (Sigma) as described above. This procedure produced the encoded protein without the nucleic acid tail. In a direct binding assay, VEGF-R2-Fc fusions in concentrations ranging from 0 to 200 nM were added to a constant concentration of the purified protein (0.2 or 0.5 nM) and incubated at 30° C. for 1 hour in buffer B. The receptor-binder complexes were captured using Protein A magnetic beads for another 10 minutes at room temperature using a Kingfisher™ The beads were washed with six reaction volumes of buffer B. The protein was eluted from the beads with 100 μL of 0.1 M KOH. […] of the reaction mixture and elution were dried onto a LumaPlate-96 (Packard) and the amount of ³⁵S on the plate was measured using a TopCount NXT instrument (Packard). The amount of fibronectin-based scaffold protein bound to the target was estimated as a percent of radioactivity eluted from Protein A magnetic beads compare to radioactivity in the reaction mixture. Nonspecific binding of fibronectin-based scaffold proteins to the beads was determined by measuring binding in the absence of KDR-Fc and represented less than 1-2% of the input. Specific binding was obtained through subtraction of nonspecific binding from total binding. Data was analyzed using the GraphPad Prizm software (GraphPad Software, Inc, San Diego, Calif.), fitted using a one site, non-linear binding equation.

T1 sequence (P35968 20-764 limits assumed, change not shown, form in doubt): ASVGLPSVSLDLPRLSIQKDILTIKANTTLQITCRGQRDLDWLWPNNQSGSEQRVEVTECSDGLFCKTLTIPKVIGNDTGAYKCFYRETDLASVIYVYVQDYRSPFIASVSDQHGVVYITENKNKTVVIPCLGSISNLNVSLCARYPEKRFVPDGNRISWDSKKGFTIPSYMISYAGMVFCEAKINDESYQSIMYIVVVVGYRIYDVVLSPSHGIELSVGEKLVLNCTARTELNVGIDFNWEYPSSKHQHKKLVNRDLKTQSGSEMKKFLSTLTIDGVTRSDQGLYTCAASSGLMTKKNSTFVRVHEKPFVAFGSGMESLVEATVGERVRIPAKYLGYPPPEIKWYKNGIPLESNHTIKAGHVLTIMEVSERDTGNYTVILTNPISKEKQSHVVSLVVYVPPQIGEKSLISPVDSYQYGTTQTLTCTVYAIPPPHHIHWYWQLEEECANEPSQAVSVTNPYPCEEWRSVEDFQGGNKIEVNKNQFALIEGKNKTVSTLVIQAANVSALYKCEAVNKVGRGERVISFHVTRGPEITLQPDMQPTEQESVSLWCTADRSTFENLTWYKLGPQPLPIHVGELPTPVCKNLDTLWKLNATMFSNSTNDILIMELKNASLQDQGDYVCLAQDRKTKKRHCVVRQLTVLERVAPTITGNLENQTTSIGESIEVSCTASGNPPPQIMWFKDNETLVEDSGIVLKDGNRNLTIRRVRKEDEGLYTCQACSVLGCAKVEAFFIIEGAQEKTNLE

Binding to 1 nM KDR, % | Binder
28% | B1
17% | B2
20% | B3
20% | B4
20% | B5
34% | B6
19% | B7
27% | B8
21% | B9
42% | B10
17% | B11
24% | B12
19% | B13
23% | B14
19% | B15
16% | B16
37% | B17
17% | B18
38% | B19
20% | B20
34% | B21
28% | B22
20% | B23
24% | B24
30% | B25
32% | B26
25% | B27

Binding to 1 nM KDR, % | Binder
27% | B28
19% | B29
33% | B30
22% | B31
38% | B32
29% | B33
19% | B34
23% | B35
14% | B36
33% | B37
16% | B38
28% | B39
42% | B40
27% | B41
22% | B42
18% | B43
29% | B44
19% | B45
20% | B46
32% | B47
33% | B48
34% | B49
25% | B50
34% | B51
23% | B52
43% | B53
38% | B54
